# According to the DeepSol protein solubility set:
# Assay: soluble on expression in E. coli; label from the status in PepcDB or PDB records
row,Sequence,soluble on expression in E. coli
1,MICLDCDDLFDTWRLQARWLLSHEIDPSQVSWKSPDAADLFGSEEQYPEQSGPFQARVPLELLQLLQSTSRYRGEQRWSLLYEVLWRVTHGDRTAMMAGDKLGSELHRRLKAVRREAHHLHAFLRFVALPPADNDAAIMRPQYVAWHEPAHDILHSASEHFIGRMGQHRWMIATPQDGVYYDGKQLIHERRCPEAWQTMARQVEDPHGELWLTYYSHIFNPARLNPKVMEGHFPSRFWKNLPE,not soluble
2,GSPIPHHDEKTWNVGSSNRNKAENLLRGKRDGTFLVRESSKQGCYACSVVVDGEVKHCVINKTATGYGFAEPYNLYSSLKELVLHYQHTSLVQHNDSLNVTLAYPVYAQQRR,soluble
3,SHMQPFVYMAAPARIVFSAGSSADVAEEIRRLGLSRALVLSTPQQKGDAEALASRLGRLAAGVFSEAAMHTPVEVTKTAVEAYRAAGADCVVSLGGGSTTGLGKAIALRTDAAQIVIPTTYAGSEVTPILGQTENGVKTTMRGPEILPEVVIYDAELTLGLPVAISMTSGLNAMAHAAEALYARDRNPIASMMAVEGLRAMIEALPVVRQAPHDIGARETALYGAWLCGTVLGAVGMSLHHKLCHTLGGSLDLPHAETHAVLLPHTIAYVEEAAPNLLAPLAALVGGRAGAGLFDFAARLGAPSSLAALGVGADDLDPMAELATANPYWCPRPIEKTAIRDLLQRAFEGARPA,soluble
4,MRVVVVGTRGSALALAQTRFVVERLKETWPETEFKIRTIKTRGDQGASPREEAIFVKEIQEALLSREIDIAVHSLKDLPTESPRGLKIASVPRRQDPRDVFLGKAAKRLKDLPPGAVVGTSSVRRKAQILALRPDLVVRDLRGNVDTRLAALGNGEYDGIVLAAAGLIRLDLRNRIDEFLDPGEVLPAPGQGALALEVREGDDLAEELCYALHHPPSYHRVRAERAFLRGLGAGCLAPVGALAHVEEDGTLRLEGVLLTPDGKSFIRAEIEGDVSEAEELGLDLARDVLEQGGREILAQIR,soluble
5,GSLRPLSEVNQHSQLMAQLVEVIEDSFQMKVNKESVNYLRLIRHIRFTIERIKKEEPTKEPEKLMLLLKNEYPLCYNTAWKLIKILQQTLKKPVHEAEAVYLTLHLIPINQ,soluble
6,QVTISITEDCPNNCIHCALPDTKNRAKLSPETVRDVIDQVLEMGTTFVIFDGGEPLTYPGLEELISYVDPEKAITGMFTSGVGLTEERARSLKAAGLYSLTVSFDSAYEEKHDYVRGRKGVFKSAVEAVKNGLAAGLLVNIYVVLSRDNVNELDELYNLAAGLGAHELSFYEIVPTGRWMDHASEIMTPKDMRK,not soluble
7,MGFHPIELRIQILGLSAFGVDSKEIAAALDVPVRSVQRIIQRAKERGFDPATDPRVKMEYVEDAERSGRPKKGSKVMAAKSQAGSTSGSESVVAAGSEVGDGNRNSMPEAQA,not soluble
8,MAAEGKAIAKVNDLVIFVPYVVPGDVVDLQIKRKKNKYAEAEAVKFHELSPVRAVPFCQHYGVCGGCKWQVLPYSEQIRYKQKQVEDNLRRIGKIELPEISPILGSAKTEFYRNKLEFTFSNKRWLTNDEVRQDVKYDQMNAVGFHIPGAFDKVLAIEKCWLQDDISNRIRNAVRDYAYEHDYSFINLRTQEGMLRNLIIRTSSTGELMVIVICKITEDHEMELFKQLLQFIADSFPEITSLLYIINNKCNDTINDLDVHVFKGKDHMFEEMEGLRFKVGPKSFYQTNSEQAYNLYKIAREFAGLTGKELVYDLYTGTGTIANFVSRQARQVIGIEYVPEAIEDAKVNAEINEIKNALFYAGDMKDMLTQEFINQHGRPDVIITDPPRAGMHQDVVDVILFAEPKRIVYVSCNPATQARDLQLLDGKYKVKAVQPVDMFPHTHHVENVVLLELR,not soluble
9,ADPDTGVDTGAPYWTRPERMDKKLLAVPAANTVRFRCPAAGNPTPSISWLKNGREFRGEHRIGGIKLRHQQWSLVMESVVPSDRGNYTCVVENKFGSIRQTYTLDVLERSPHRPILQAGLPANQTAVLGSDVEFHCKVYSDAQPHIQWLKHVEVNGSKVGPDGTPYVTVLKSWISESVEADVRLRLANVSERDGGEYLCRATNFIGVAEKAFWLSVHGPRAAEEELVEADEAGSVHHHHHH,soluble
10,MGSDKIHHHHHHMNSMDATAAHHTSPNATLVYDIRHSRYLNITGRCTLRCGFCPKQQGSRQIHQYQLALDKQPGVDDLLPLLGDVDTFDEYVFCGYGEPTLNLPTLLGVARAIKSQGGRIRVNTDGLGNLFHKRNILPELADCVDALSVSLNAQDEFTYLKHCQPRLKGSWQAVNDFIRMAPAYIKRVEVSAIDGLPGVDIPACRALVEAAGCTFKHRKLDIMG,not soluble
